Data taken from US20260167699A1 (Chugai, published 2026).

B1: GpH7-A5/GpH7-B3 variant P271_01G/GpL16-k0 (antibody, human IgG1, kappa)
heavy 1: not shown
heavy 2: not shown
light: DIVMTQSPLSLPVTPGEPASISCQASESLVHSNRNTYLHWYLQKPGQSPQLLIYKVSNRFSGVPDRFSGSGSGTDFTLKISRVEAEDVGVYYCSQNTHVPPTFGQGTKVEIERTVAAPSVFIFPPSDEQLKSGTASVVCLLNNFYPREAKVQWKVDNALQSGNSQESVTEQDSKDSTYSLSSTLTLSKADYEKHKVYACEVTHQGLSSPVTKSFNRGEC
notes: copies: 1 + 1 + 2
B2: GpH7-A5/GpH7-B3 variant P271_10E/GpL16-k0 (antibody, human IgG1, kappa)
heavy 1: not shown
heavy 2: not shown
light: DIVMTQSPLSLPVTPGEPASISCQASESLVHSNRNTYLHWYLQKPGQSPQLLIYKVSNRFSGVPDRFSGSGSGTDFTLKISRVEAEDVGVYYCSQNTHVPPTFGQGTKVEIERTVAAPSVFIFPPSDEQLKSGTASVVCLLNNFYPREAKVQWKVDNALQSGNSQESVTEQDSKDSTYSLSSTLTLSKADYEKHKVYACEVTHQGLSSPVTKSFNRGEC
notes: copies: 1 + 1 + 2
B3: GpH7-A5/GpH7-B3 variant P329_09D/GpL16-k0 (antibody, human IgG1, kappa)
heavy 1: not shown
heavy 2: not shown
light: DIVMTQSPLSLPVTPGEPASISCQASESLVHSNRNTYLHWYLQKPGQSPQLLIYKVSNRFSGVPDRFSGSGSGTDFTLKISRVEAEDVGVYYCSQNTHVPPTFGQGTKVEIERTVAAPSVFIFPPSDEQLKSGTASVVCLLNNFYPREAKVQWKVDNALQSGNSQESVTEQDSKDSTYSLSSTLTLSKADYEKHKVYACEVTHQGLSSPVTKSFNRGEC
notes: copies: 1 + 1 + 2
B4: GpH7-A5/GpH7-B3 variant P271_09D/GpL16-k0 (antibody, human IgG1, kappa)
heavy 1: not shown
heavy 2: not shown
light: DIVMTQSPLSLPVTPGEPASISCQASESLVHSNRNTYLHWYLQKPGQSPQLLIYKVSNRFSGVPDRFSGSGSGTDFTLKISRVEAEDVGVYYCSQNTHVPPTFGQGTKVEIERTVAAPSVFIFPPSDEQLKSGTASVVCLLNNFYPREAKVQWKVDNALQSGNSQESVTEQDSKDSTYSLSSTLTLSKADYEKHKVYACEVTHQGLSSPVTKSFNRGEC
notes: copies: 1 + 1 + 2
B5: GpH7-A5/GpH7-B3 variant P271_18N/GpL16-k0 (antibody, human IgG1, kappa)
heavy 1: not shown
heavy 2: not shown
light: DIVMTQSPLSLPVTPGEPASISCQASESLVHSNRNTYLHWYLQKPGQSPQLLIYKVSNRFSGVPDRFSGSGSGTDFTLKISRVEAEDVGVYYCSQNTHVPPTFGQGTKVEIERTVAAPSVFIFPPSDEQLKSGTASVVCLLNNFYPREAKVQWKVDNALQSGNSQESVTEQDSKDSTYSLSSTLTLSKADYEKHKVYACEVTHQGLSSPVTKSFNRGEC
notes: copies: 1 + 1 + 2
B6: GpH7-A5/GpH7-B3 variant P329_02A/GpL16-k0 (antibody, human IgG1, kappa)
heavy 1: not shown
heavy 2: not shown
light: DIVMTQSPLSLPVTPGEPASISCQASESLVHSNRNTYLHWYLQKPGQSPQLLIYKVSNRFSGVPDRFSGSGSGTDFTLKISRVEAEDVGVYYCSQNTHVPPTFGQGTKVEIERTVAAPSVFIFPPSDEQLKSGTASVVCLLNNFYPREAKVQWKVDNALQSGNSQESVTEQDSKDSTYSLSSTLTLSKADYEKHKVYACEVTHQGLSSPVTKSFNRGEC
notes: copies: 1 + 1 + 2
B7: GpH7-A5/GpH7-B3 variant P271_07I/GpL16-k0 (antibody, human IgG1, kappa)
heavy 1: not shown
heavy 2: not shown
light: DIVMTQSPLSLPVTPGEPASISCQASESLVHSNRNTYLHWYLQKPGQSPQLLIYKVSNRFSGVPDRFSGSGSGTDFTLKISRVEAEDVGVYYCSQNTHVPPTFGQGTKVEIERTVAAPSVFIFPPSDEQLKSGTASVVCLLNNFYPREAKVQWKVDNALQSGNSQESVTEQDSKDSTYSLSSTLTLSKADYEKHKVYACEVTHQGLSSPVTKSFNRGEC
notes: copies: 1 + 1 + 2
B8: GpH7-A5/GpH7-B3 variant P271_11K/GpL16-k0 (antibody, human IgG1, kappa)
heavy 1: not shown
heavy 2: not shown
light: DIVMTQSPLSLPVTPGEPASISCQASESLVHSNRNTYLHWYLQKPGQSPQLLIYKVSNRFSGVPDRFSGSGSGTDFTLKISRVEAEDVGVYYCSQNTHVPPTFGQGTKVEIERTVAAPSVFIFPPSDEQLKSGTASVVCLLNNFYPREAKVQWKVDNALQSGNSQESVTEQDSKDSTYSLSSTLTLSKADYEKHKVYACEVTHQGLSSPVTKSFNRGEC
notes: copies: 1 + 1 + 2
B9: GpH7-A5/GpH7-B3 variant P271_16H/GpL16-k0 (antibody, human IgG1, kappa)
heavy 1: not shown
heavy 2: not shown
light: DIVMTQSPLSLPVTPGEPASISCQASESLVHSNRNTYLHWYLQKPGQSPQLLIYKVSNRFSGVPDRFSGSGSGTDFTLKISRVEAEDVGVYYCSQNTHVPPTFGQGTKVEIERTVAAPSVFIFPPSDEQLKSGTASVVCLLNNFYPREAKVQWKVDNALQSGNSQESVTEQDSKDSTYSLSSTLTLSKADYEKHKVYACEVTHQGLSSPVTKSFNRGEC
notes: copies: 1 + 1 + 2
B10: GpH7-A5/GpH7-B3 variant P271_12R/GpL16-k0 (antibody, human IgG1, kappa)
heavy 1: not shown
heavy 2: not shown
light: DIVMTQSPLSLPVTPGEPASISCQASESLVHSNRNTYLHWYLQKPGQSPQLLIYKVSNRFSGVPDRFSGSGSGTDFTLKISRVEAEDVGVYYCSQNTHVPPTFGQGTKVEIERTVAAPSVFIFPPSDEQLKSGTASVVCLLNNFYPREAKVQWKVDNALQSGNSQESVTEQDSKDSTYSLSSTLTLSKADYEKHKVYACEVTHQGLSSPVTKSFNRGEC
notes: copies: 1 + 1 + 2
B11: GpH7-A5/GpH7-B3 variant P271_02A/GpL16-k0 (antibody, human IgG1, kappa)
heavy 1: not shown
heavy 2: not shown
light: DIVMTQSPLSLPVTPGEPASISCQASESLVHSNRNTYLHWYLQKPGQSPQLLIYKVSNRFSGVPDRFSGSGSGTDFTLKISRVEAEDVGVYYCSQNTHVPPTFGQGTKVEIERTVAAPSVFIFPPSDEQLKSGTASVVCLLNNFYPREAKVQWKVDNALQSGNSQESVTEQDSKDSTYSLSSTLTLSKADYEKHKVYACEVTHQGLSSPVTKSFNRGEC
notes: copies: 1 + 1 + 2

molecular target: T1, FcγRIIIa (human, UniProt P08637 17-208); test: SPR (Biacore);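 note: antibody variants captured on an SPR sensor chip, with FcγRIIIa passed over as analyte in HBS-EP+ buffer at 25 °C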
T1 construct: extracellular domain; also called 3a; FcγRIIIa extracellular domain
T1 sequence (P08637 other isoform, or with tags, fused parts or gaps): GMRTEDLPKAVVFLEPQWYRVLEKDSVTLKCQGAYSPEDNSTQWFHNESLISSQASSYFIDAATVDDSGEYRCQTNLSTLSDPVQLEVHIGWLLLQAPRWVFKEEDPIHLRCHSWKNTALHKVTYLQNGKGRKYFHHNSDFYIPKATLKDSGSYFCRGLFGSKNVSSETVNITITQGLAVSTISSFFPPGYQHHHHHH

Going from B1 to B2, the “He/Con 3a” value falls from 119 % of GpH7-A5/GpH7-B3/GpL16-k0 to 98.2 % of GpH7-A5/GpH7-B3/GpL16-k0.

First: B3
Second: B4
The “He/Con 3a” value of the first is lower: 52.5 % of GpH7-A5/GpH7-B3/GpL16-k0 for the first, 97.7 % of GpH7-A5/GpH7-B3/GpL16-k0 for the second.

Compared with B5, B6 is lower in “He/Con 3a” value: 94 % of GpH7-A5/GpH7-B3/GpL16-k0 for the first, 55.2 % of GpH7-A5/GpH7-B3/GpL16-k0 for the second.

Going from B7 to B8, the “He/Con 3a” value rises from 80.2 % of GpH7-A5/GpH7-B3/GpL16-k0 to 92.5 % of GpH7-A5/GpH7-B3/GpL16-k0.

First: B9
Second: B10
The “He/Con 3a” value of the first is lower: 70.3 % of GpH7-A5/GpH7-B3/GpL16-k0 for the first, 87.6 % of GpH7-A5/GpH7-B3/GpL16-k0 for the second.

With B11 the “He/Con 3a” value was 83.7 % of GpH7-A5/GpH7-B3/GpL16-k0.
